# Results: patent US20250171516A1, “PEPTIDE ACIDS AS A GLP1R AGONIST AND ANTIBODY-DRUG CONJUGATES THEREOF” (Regeneron Pharmaceuticals, Inc., priority 2023, published 2025)
# Non-standard residues stand in square brackets, D forms with d. Groups on a side chain read outwards from the residue. No end group written: not given here. AA10 = not defined here; AA1 = not defined here; AA2 = not defined here; AA6 = not defined here; AA9 = not defined here
# B1: AA10-AA9-AA8-AA7-AA6-AA5-AA4-AA3-(Q-L)AA2-OH (peptide)
# peptide: [AA10][AA9]GT[AA6]TSD[AA2]([Leu-Gln])-OH
# modifications: reading uncertain; also: printed as AA10-AA9-AA8-AA7-AA6-AA5-AA4-AA3-(Q-L)AA2-OH
# B2: LLQ-M6009 (AA10-AA9-AA8-AA7-AA6-AA5-AA4-AA3-(LLQ-L)AA2-AA1-OH) (peptide)
# peptide: [AA10][AA9]GT[AA6]TSD[AA2]([Leu-Gln-Leu-Leu])[AA1]-OH
# modifications: reading uncertain; also: printed as LLQ-M6009 (AA10-AA9-AA8-AA7-AA6-AA5-AA4-AA3-(LLQ-L)AA2-AA1-OH)
# B3: AA10-AA9-AA8-AA7-AA6-AA5-AA4-AA3-(LLQ-L)AA2-OH (peptide)
# peptide: [AA10][AA9]GT[AA6]TSD[AA2]([Leu-Gln-Leu-Leu])-OH
# modifications: reading uncertain; also: printed as AA10-AA9-AA8-AA7-AA6-AA5-AA4-AA3-(LLQ-L)AA2-OH
# B4: Q-M6009 (AA10-AA9-AA8-AA7-AA6-AA5-AA4-AA3-(Q-L)AA2-AA1-OH) (peptide)
# peptide: XXGTXTSDXX-OH
# modifications: not fully specified (residues 1, 2, 5, 9, 10); printed as Q-M6009 (AA10-AA9-AA8-AA7-AA6-AA5-AA4-AA3-(Q-L)AA2-AA1-OH)
# B5: AA10-AA9-AA8-AA7-AA6-AA5-AA4-AA3-AA2-AA1-OH (peptide)
# peptide: [AA10][AA9]GT[AA6]TXD[AA2][AA1]-OH
# modifications: not fully specified (residue 7); printed as AA10-AA9-AA8-AA7-AA6-AA5-AA4-AA3-AA2-AA1-OH; also: AA2 azidobutoxy
# B6: AA10-AA9-AA8-AA7-AA6-AA5-AA4-AA3-AA2-OH (peptide)
# peptide: [AA10][AA9]GT[AA6]TSDX-OH
# modifications: not fully specified (residue 9); printed as AA10-AA9-AA8-AA7-AA6-AA5-AA4-AA3-AA2-OH
# Target: GLP-1R of the cAMP assay of Tables 10, 14 and 15 (human, UniProt P43220 24-463, limits assumed)
# Experiment: cell-based or functional assay
Binder,GLP-1R CAMP EC50 [nM],GLP-1R CAMP Max (%)
B1,> 1000,29.2
B2,13.4,104
B3,> 1000,33.9
B4,3.21,106
B5,2.94,122
B6,51.2,97.9
